Data taken from patent US10227388B2, “Peptides and combination of peptides for use in immunotherapy against non-small cell lung cancer and other cancers” (immatics biotechnologies GmbH, priority 2015, dated 2019).

Biological target: HLA-A*02:01 (Homo sapiens, UniProt P04439, D140Y/D185E/D98H/E176V/E277Q/G131W/G231S/I119V/I121R/I166T/I218V/L300P/L318F/N151K/N90K/P208A/P217A/Q86G/Q94H/R138H/R169H/T345S)
Assay: MHC binding assay (UV-ligand exchange, ELISA, peptide exchange yield)
Conditions: binding of HLA-class I restricted peptides to HLA-A*02:01
Summary of the method: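 Peptide–HLA-A*02:01 complexes made by UV-ligand exchange of a UV-cleavable peptide for the test peptide. Exchange yield measured by ELISA: 100-fold diluted monomers captured on streptavidin, 1 h at 37° C., detected with HRP anti-β2m and TMB, absorbance at 450 nm.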

| Substance | Peptide exchange (MHC class I binding score, peptide exchange yield) |
| --- | --- |
| 388 (SLTIDGIRYV; listed as Homo sapiens) [compound 388] | ″+++″ (≥50% = +++) |
| 389 (LLADVTHLL; listed as Homo sapiens) [compound 389] | ″++″ (≥20% = ++) |
| 390 (ALFMKQIYL; listed as Homo sapiens) [compound 390] | ″+++″ (≥50% = +++) |
| 391 (YVYPQRLNFV; listed as Homo sapiens) [compound 391] | ″+++″ (≥50% = +++) |
| 392 (ALLHPQGFEV; listed as Homo sapiens) [compound 392] | ″++″ (≥20% = ++) |
| 393 (GLLDTQTSQVLTA; listed as Homo sapiens) [compound 393] | ″++″ (≥20% = ++) |
| 394 (LLAVIGGLVYL; listed as Homo sapiens) [compound 394] | ″+++″ (≥50% = +++) |
| 395 (ALALGGIAVV; listed as Homo sapiens) [compound 395] | ″++++″ (≥75% = ++++) |
| 396 (ALLPDLPAL; listed as Homo sapiens) [compound 396] | ″+++″ (≥50% = +++) |
| 397 (YLFGERLLEC; listed as Homo sapiens) [compound 397] | ″+++″ (≥50% = +++) |
| 398 (KLLEEDGTIITL; listed as Homo sapiens) [compound 398] | ″++″ (≥20% = ++) |
| 399 (YLFEPLYHV; listed as Homo sapiens) [compound 399] | ″+++″ (≥50% = +++) |
| 400 (SLLTEQDLWTV; listed as Homo sapiens) [compound 400] | ″++″ (≥20% = ++) |
| 401 (ILLDDTGLAYI; listed as Homo sapiens) [compound 401] | ″+++″ (≥50% = +++) |
| 402 (VLFSGALLGL; listed as Homo sapiens) [compound 402] | ″++″ (≥20% = ++) |
| 403 (KLYDRILRV; listed as Homo sapiens) [compound 403] | ″++″ (≥20% = ++) |
| 405 (ALYDVFLEV; listed as Homo sapiens) [compound 405] | ″++″ (≥20% = ++) |
| 407 (YLMDLINFL; listed as Homo sapiens) [compound 407] | ″+++″ (≥50% = +++) |
| 408 (VLDDSIYLV; listed as Homo sapiens) [compound 408] | ″++″ (≥20% = ++) |
| 409 (LLDAMNYHL; listed as Homo sapiens) [compound 409] | ″++″ (≥20% = ++) |
| 412 (YLDDLNEGVYI; listed as Homo sapiens) [compound 412] | ″++″ (≥20% = ++) |
| 426 (RLADKSVLV; listed as Homo sapiens) [compound 426] | ″+++″ (≥50% = +++) |

| Substance | Peptide exchange (MHC class I binding score, peptide exchange yield) |
| --- | --- |
| 427 (ALLPLSPYL; listed as Homo sapiens) [compound 427] | ″+++″ (≥50% = +++) |
| 428 (KLGHTDILVGV; listed as Homo sapiens) [compound 428] | ″++″ (≥20% = ++) |
| 429 (GLVNDLARV; listed as Homo sapiens) [compound 429] | ″++″ (≥20% = ++) |
| 430 (HLYSSIEHLTT; listed as Homo sapiens) [compound 430] | ″+++″ (≥50% = +++) |
| 431 (SLVNVVPKL; listed as Homo sapiens) [compound 431] | ″++″ (≥20% = ++) |
| 432 (TLIEESAKV; listed as Homo sapiens) [compound 432] | ″++″ (≥20% = ++) |
| 433 (AMLNEPWAV; listed as Homo sapiens) [compound 433] | ″+++″ (≥50% = +++) |
| 434 (KVSNSGITRV; listed as Homo sapiens) [compound 434] | ″++″ (≥20% = ++) |
| 436 (HLAEVSAEV; listed as Homo sapiens) [compound 436] | ″+++″ (≥50% = +++) |
| 437 (SMAPGLVIQAV; listed as Homo sapiens) [compound 437] | ″+++″ (≥50% = +++) |
| 438 (KLLPLAGLYL; listed as Homo sapiens) [compound 438] | ″++++″ (≥75% = ++++) |
| 439 (YLLQEIYGI; listed as Homo sapiens) [compound 439] | ″+++″ (≥50% = +++) |
| 440 (ALADGVTMQV; listed as Homo sapiens) [compound 440] | ″++″ (≥20% = ++) |
| 441 (ALLENPKMEL; listed as Homo sapiens) [compound 441] | ″+++″ (≥50% = +++) |
| 442 (GLLGGGGVLGV; listed as Homo sapiens) [compound 442] | ″+++″ (≥50% = +++) |
| 444 (GLLRDEALAEV; listed as Homo sapiens) [compound 444] | ″+++″ (≥50% = +++) |
| 446 (QLIPALAKV; listed as Homo sapiens) [compound 446] | ″+++″ (≥50% = +++) |
| 447 (QLVPALAKV; listed as Homo sapiens) [compound 447] | ″++″ (≥20% = ++) |
| 448 (NLLETKLQL; listed as Homo sapiens) [compound 448] | ″+++″ (≥50% = +++) |
| 449 (KLAEGLDIQL; listed as Homo sapiens) [compound 449] | ″+++″ (≥50% = +++) |
| 450 (FMIDASVHPTL; listed as Homo sapiens) [compound 450] | ″+++″ (≥50% = +++) |
| 451 (LLLLDTVTMQV; listed as Homo sapiens) [compound 451] | ″++″ (≥20% = ++) |

| Substance | Peptide exchange (MHC class I binding score, peptide exchange yield) |
| --- | --- |
| 452 (ILLEHGADPNL; listed as Homo sapiens) [compound 452] | ″+++″ (≥50% = +++) |
| 453 (KLLEATSAV; listed as Homo sapiens) [compound 453] | ″++″ (≥20% = ++) |
| 454 (KLPPPPPQA; listed as Homo sapiens) [compound 454] | ″+++″ (≥50% = +++) |
| 455 (SLLKEPQKVQL; listed as Homo sapiens) [compound 455] | ″++″ (≥20% = ++) |
| 456 (LLIGHLERV; listed as Homo sapiens) [compound 456] | ″+++″ (≥50% = +++) |
| 457 (SLLPGNLVEKV; listed as Homo sapiens) [compound 457] | ″+++″ (≥50% = +++) |
| 458 (SLIDKLYNI; listed as Homo sapiens) [compound 458] | ″++″ (≥20% = ++) |
| 459 (ALITEVVRL; listed as Homo sapiens) [compound 459] | ″++″ (≥20% = ++) |
| 461 (VMFRTPLASV; listed as Homo sapiens) [compound 461] | ″++″ (≥20% = ++) |
| 462 (KLAKQPETV; listed as Homo sapiens) [compound 462] | ″+++″ (≥50% = +++) |
| 463 (SLVESHLSDQLTL; listed as Homo sapiens) [compound 463] | ″+++″ (≥50% = +++) |
| 464 (ALNDCIYSV; listed as Homo sapiens) [compound 464] | ″+++″ (≥50% = +++) |
| 465 (QLCDLNAEL; listed as Homo sapiens) [compound 465] | ″+++″ (≥50% = +++) |
| 466 (VLIANLEKL; listed as Homo sapiens) [compound 466] | ″++++″ (≥75% = ++++) |
| 467 (FLAKDFNFL; listed as Homo sapiens) [compound 467] | ″+++″ (≥50% = +++) |
| 468 (YLRSVGDGETV; listed as Homo sapiens) [compound 468] | ″+++″ (≥50% = +++) |
| 469 (YLASDEITTV; listed as Homo sapiens) [compound 469] | ″+++″ (≥50% = +++) |
| 471 (YLYNNMIAKI; listed as Homo sapiens) [compound 471] | ″+++″ (≥50% = +++) |
| 472 (KLLEVSDDPQV; listed as Homo sapiens) [compound 472] | ″+++″ (≥50% = +++) |
| 473 (AMATESILHFA; listed as Homo sapiens) [compound 473] | ″+++″ (≥50% = +++) |
| 474 (YLDPALELGPRNV; listed as Homo sapiens) [compound 474] | ″+++″ (≥50% = +++) |
| 475 (LLLNEEALAQI; listed as Homo sapiens) [compound 475] | ″+++″ (≥50% = +++) |
